Data published in US20210087270A1 (INNATE PHARMA, published 2021).

Biological target: T1, human KIR3DL2 (CD158k), wild type, at the cell surface (human, UniProt P43630 22-455)
T1 construct: also called WTaKIR3DL2; un-mutated wild type KIR3DL2
Experiment: fluoro-microscopy on HUT78 cells, 10 µg/ml, goat anti-mouse Alexa594
Method: Internalization of antibodies 10F6, 2B12, 18C6, 9E10, 10G5, 13H1, 4B5, 5H1, 1E2, 1C3 and 20E9, as well as antibody AZ158 (an anti-domain 0 mAb as comparator) and other anti-D1 antibodies as disclosed in PCT applications WO2014/044686 and WO2014/044681 were assessed by fluoro-microscopy using the HUT78 SS cell line.
Hut-78 cells were incubated during 1H at 4° C. with 10 μg/ml of the different antibodies. After this incubation cells were either fixed (t=OH) or incubated for 2H at 37° C. Cells incubated for 2H were then fixed and stained. Antibodies were stained using goat anti-mouse antibodies coupled to Alexa594 (Invitrogen, A11032). […] Pictures were acquired using an Apotome device (Zeiss) and analyzed using the Axiovision software.

T1 sequence (P43630 22-455 E158D): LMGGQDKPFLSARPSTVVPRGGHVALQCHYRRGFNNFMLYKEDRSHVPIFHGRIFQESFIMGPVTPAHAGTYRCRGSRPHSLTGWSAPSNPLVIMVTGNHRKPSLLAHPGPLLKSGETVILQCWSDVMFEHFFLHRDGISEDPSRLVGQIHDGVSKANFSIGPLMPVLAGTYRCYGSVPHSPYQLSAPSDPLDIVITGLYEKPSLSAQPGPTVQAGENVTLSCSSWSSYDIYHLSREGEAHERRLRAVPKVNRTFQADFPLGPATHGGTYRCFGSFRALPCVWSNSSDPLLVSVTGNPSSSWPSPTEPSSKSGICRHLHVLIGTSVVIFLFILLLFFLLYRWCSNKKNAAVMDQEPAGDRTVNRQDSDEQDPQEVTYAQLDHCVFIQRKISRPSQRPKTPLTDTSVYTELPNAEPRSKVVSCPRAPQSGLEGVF

Binder	binding result
antibody 13H1 (antibody, V domains shown) VH: EVQLQQSGPELVKPGASMKISCKASHYSFIGYTMNWVKQRHGKNLEWIGLINPYNGDTTYNQKFKGKASLTVDKSSSTAYMEILSLTSEDSAVYYCARENWGYPYAMDYWGQGTSVTVS VL: not shown	binds
antibody 10F6 (antibody, V domains shown, Detected with goat anti-mouse antibody) VH: QIQLVQSGPELKKPGETVRISCKASGYTFTIAGMQWVQKMPGKGLKWIGWINTHSGVPKYAEDFKGRFAFSLETSANIAYLQISNLKNEDTATYFCARGGDEGVMDYWGQGTSVTVS VL: DIVMTQSHKFMSTSVGDRVSITCKASQDVSTAVAWYHQKPGQSPKLLIYWASTRHTGVPDRFSGSGSGTDYTLTISALQAEDLALYYCQQHYNTPWTFGGGTKLEIK	binds
antibody 1E2 (antibody, V domains shown) VH: QVQLQQSGAELVRPGVSVKISCKGSGYTFTDYAMNWVKQSHAKSLEWIGVISTYYGDANYNQKFKGKATMTVDKSSSTAYMELARLTSEDSAIYYCALIYYDYDGSYWGQGTTLTVS VL: DVVMTQTPLSLPVSLGDQASISCRSSQSLVHSNGNTYLHWYLQKPGQSPKLLIYKVSNRFSGVPDRFSGSGSGTDFTLKISRVEAEDLGVYFCSQSTHVPPYTFGGGTKLEIK	binds
antibody 1C3 (antibody, V domains shown) VH: QVQLQQSGAELARPGASVKLSCKASGYTFTSYWMQWVKQRPGQGLEWIGAIYPGDGDTRYTQKFKGKATLTADKSSSTAYMQLSSLASEDSAVYYCARRYDGYYHFDYWGQGTTLTVS VL: DIVMTQSPSSLAVTAGEKVTMSCKSSQSLLWSVNQKNYLSWYQQKQRQPPKLLIYGASIRESWVPDRFTGSGSGTDFTLTISNVHAEDLAVYYCQHNHGSFLPLTFGSGTKLEIK	binds
antibody 20E9 (antibody, V domains shown) VH: QVQLQQSGAEVARPGASVKLSCKSSGFTFTTYWMQWVKQRPGQGLEWIGAIYPGDGDTRYTQKFKGKATLTADKSSITAYMQLSSLASEDSAVYYCARRGDYGNYGMDYWGQGTSVTVSS VL: DVLMTQTPLSLPVSLGDQASISCRSSQSIVHSNGNTYLEWYLQKPGQSPKLLIYKVSNHFSGVPDRFSGSGSGTDFTLKISRVEAEDLGVYYCFQGSHVPPTFGGGTKLEIK	binds

Biological target: T2, KIR3DL1 (CD158e1) (UniProt P43629 22-444, limits assumed)
T2 construct: also called closely related KIR3DL1
T2 sequence (P43629 22-444 limits assumed): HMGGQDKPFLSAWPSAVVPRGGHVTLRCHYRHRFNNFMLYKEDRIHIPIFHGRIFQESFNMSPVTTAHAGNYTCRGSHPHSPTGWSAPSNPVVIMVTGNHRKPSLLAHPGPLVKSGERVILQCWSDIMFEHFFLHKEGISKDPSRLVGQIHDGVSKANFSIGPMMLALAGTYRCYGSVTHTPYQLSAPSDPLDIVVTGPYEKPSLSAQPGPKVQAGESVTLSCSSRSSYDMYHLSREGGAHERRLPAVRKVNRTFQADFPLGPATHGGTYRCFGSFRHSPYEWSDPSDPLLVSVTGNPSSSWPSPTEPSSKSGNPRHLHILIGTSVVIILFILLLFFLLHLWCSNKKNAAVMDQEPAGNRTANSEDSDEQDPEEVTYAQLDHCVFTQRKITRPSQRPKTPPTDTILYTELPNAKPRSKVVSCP
Experiment: hybridoma screening (flow cytometry, incl. HEK-293T/KIR3DL1 Domain 0-eGFP)
Method: Antibodies which bind KIR3DL2 but not closely related KIR3DL1 were generated by immunizing mice with recombinant KIR3DL2-Fc fusion protein, described in US patent publication number US-2015-0232556-A1. Supernatant (SN) of the growing hybridomas were tested by flow cytometry on Sezary Syndrome cell lines (HUT78, COU-L) and HEK-293T/KIR3DL2 Domain 0-eGFP. Potentially interesting hybridomas selected from the initial screening were cloned by limiting dilution techniques in 96-wells plates. The secondary screen involved selection of hybridomas of interest by testing supernatants of the subclones by flow cytometry on HUT78, COU-L, HEK-293T/KIR3DL1 Domain 0-eGFP and HEK-293T/KIR3DL2 Domain 0-eGFP. Positive subclones were injected into mice to produce ascitis and antibodies of interest were purified before being tested in a Biacore assay using rec KIR3DL2 chips, followed by various assays formats based on binding to human KIR3DL2-expressing cells.

Binder	binding result
antibody 10G5 (antibody, V domains shown) VH: QVQLQQSAAELARPGASVKMSCKASGYTFTSYTMHWVKQRPGQGLEWIGYINPSSGYTENNRKFKDKTTLTADKSSSTAYMQLSSLTSEDSAVYYCARLGKGLLPPFDYWGQGTTLTVSS VL: DIQMTQSPASLSVSVGETVTITCRASENIYSNLAWYQQKQGKSPQLLVYAATNLADGVPSRFSGSGSGTQYSLKINSLQSEDFGSYYCQHFWGTPYTFGGGTKLEIK	no binding
